# According to patent US20150329642A1 (Genmab, published 2015):
# Changes are numbered by the printed parent chain.
# B1: anti-c-Met HuMab 005 (IgG1) (antibody, V domains shown)
# VH: QVQLVQSGAEVKKPGSSVKVSCKASGGTFSSYGFGWVRQAPGQGLEWMGRISPILGIANYAQMFQGRVTITADKSTSTAYMELSSLRSEDTAVYYCARDVGYDWPDTFDIWGQGTMVIVSS
# VL: DIQMTQSPSSLSASVGDRVTITCRASQGISSWLAWYQQKPEKAPKSLIYAASSLQSGVPSRFSGGGSGTDFTLTISSLQPEDFATYYCQQYNSFPPTFGQGTKVEIK
# notes: also called TH1016-005; PC1016-005
# B2: IgG1-1016-022 (antibody, V domains shown)
# VH: QVQLVESGGGVVQPGRSLRLSCAASGFTFSSYAMHWVRQAPGKGLEWVAVISYDGSNKYYADSVKGRFTISRDNSKNTLYLQMNSLRAEDTAVYYCARELLWFGELWGYFDLWGRGTLVTVSS
# VL: B1 VL with L11V, Q38H, E41G, S46L, G65S, Q90E, Y91A, N92S, P95T, P96W
# notes: also called TH1016-022; PC1016-022
# B3: anti-c-Met HuMab 006 (IgG1) (antibody, V domains shown)
# VH: B1 VH with Y32F, F34I, S52F, I57T, S84T, W104S, P105A, T107A, I118T
# VL: B1 VL with G65S, F94Y
# notes: also called TH1016-006; PC1016-006
# B4: IgG1-024 (antibody, V domains shown)
# VH: EVQLLESGGGLVQPGGSLRLSCVASGFTFSSYAMSWVRQAPGKGLEWVSAISGSSGGSTYYVDSVKGRFTISRANSKNTLYLQMNSLRAEDTAVYYCAKDLDRGWMGYFGYWGQGTLVTVSS
# VL: DIQMTQSPSSVSASVGDRVTITCRASQGISSWLAWYQHKPGKAPKLLIYAASSLQSGVPSRFSGSGSGTDFTLTISSLQPEDFATYYCQQANSFPTFGQGTRLEIK
# notes: also called TH1016-024; PC1016-024
# B5: anti-c-Met HuMab 008 (IgG1) (antibody, V domains shown)
# VH: EVQLVQSGAEVKKPGESLKISCKGSGYSFTSYWIGWVRQMPGKGLEWMGIIYPGDSETRYSPSFQGQVTISADKSISTAYLQWSSLKASDTAMYYCARQEITGEFDYWGQGTLVTVSS
# VL: AIQLTQSPSSLSASVGDRVTITCRASQGISSALAWYQQKPGKAPKLLIYDASSLESGVPSRFSGSGSGTDFTLTISSLQPEDFATYYCQQFNSYPRTFGQGTKVEIK
# notes: also called TH1016-008; PC1016-008
# Target: T1, cMetECDHis (human, UniProt P08581 25-932, limits assumed, biotinylated in the cross-block ELISA of Example 17)
# T1 construct: Expressed in HEK-293F cells; also called soluble cMetECDHis; biotinylated cMetECDHis
# Test: cross-block ELISA; competitor 064
# Protocol: (§1) First, the optimal coating concentrations of the tested anti-c-Met antibodies and the optimal cMetECDHis concentration were determined. Therefore, ELISA wells were coated overnight at 4° C. with anti-c-Met HuMabs serially diluted in PBS (8 μg/mL in 2-fold dilutions). Next, the ELISA wells were washed with PBST (PBS supplemented with 0.05% Tween-20 [Sigma-Aldrich, Zwijndrecht, The Netherlands]) and blocked for one hour at room temperature (RT) with PBSTC (PBST supplemented 2% [v/v] chicken serum [Gibco, Paisley, Scotland]). Subsequently, the ELISA wells were washed with PBST and incubated for one hour at RT with biotinylated cMetECDHis serially diluted in PBSTC (1 μg/mL in 2-fold dilutions). Unbound biotinylated cMetECDHis was washed away with PBST, and bound biotinylated cMetECDHis was incubated for one hour at RT with 0.1 μg/mL Streptavidin-poly-HRP (Sanquin, Amsterdam, The Netherlands) diluted in PBST.
# (§2) ELISA wells were coated with anti-c-Met antibody at a sub-optimal dose as described above. After blocking of the ELISA wells, they were incubated with the predetermined concentration of biotinylated cMetECDHis in the presence of an excess of anti-c-Met antibody. The reaction was developed as described above. Residual binding was expressed as a percentage relative to the binding observed in the absence of competitor antibody.
row,"residual binding, % of no competitor [%]",Binder
1,118,B1
2,102,B2
3,122,B3
4,2.3,B4
5,107,B5

# Target: T1, cMetECDHis
# Test: cross-block ELISA; competitor 062
# Protocol: as §1, §2
row,"residual binding, % of no competitor [%]",Binder
1,118,B1
2,99.4,B2
3,119,B3
4,2.3,B4
5,100,B5

# Target: T1, cMetECDHis
# Test: cross-block ELISA; competitor 069
# Protocol: as §1, §2
row,"residual binding, % of no competitor [%]",Binder
1,124,B1
2,99.6,B2
3,124,B3
4,2.9,B4
5,104,B5

# Target: T1, cMetECDHis
# Test: BLI (Octet); antibody captured, cMetECDHis in solution
# Protocol: Antibody binding to cMetECDHis was analyzed by means of Bio-Layer Interferometry (BLI) technology on the Octet System (Fortebio, Menlo Park, USA). Anti-human IgG coated biosensors (Fc-specific) were used to capture anti-c-Met antibodies according to the procedure recommended by the manufacturer. cMetECDHis derived from HEK293 cells was loaded on top of the immobilized anti-c-Met antibodies by placing the loaded biosensor into a well containing 10 μg/mL cMetECDHis diluted in 10 times diluted kinetics buffer (Fortebio). The difference in reflection of light (AA, nm) of the biosensor surface due to the binding of cMetECDHis was measured in real time during approximately 10 minutes and was used by the Octet software (V4.0, Fortebio) to calculate the association constant (kₐ [1/M×s]). Next, the loaded biosensor was placed into a well containing only kinetics buffer (10 times diluted in PBS) to determine the dissociation constant (kd [1/s]). Kinetics analysis was performed to determine the affinity (KD [M]) using model 1:1 (langmuir). As a positive control, 0.2 μg/mL 5D5 IgG1 produced in HEK293 cells, was used.
Kd [nM],koff [s⁻¹],kon [M⁻¹ s⁻¹],Binder
7.92,0.00252,318000,B1
1.06,0.000251,236000,B2
9.89,0.0042,425000,B3
1.57,0.000228,145000,B4
5.12,0.00157,308000,B5

# Target: T1, cMetECDHis
# Test: cross-block ELISA; competitor 005
# Protocol: as §1, §2
row,"residual binding, % of no competitor [%]",Binder
1,7.7,B1
2,37.9,B2
3,11.3,B3
4,98.4,B4
5,63.9,B5

# Target: T1, cMetECDHis
# Test: cross-block ELISA; competitor 181
# Protocol: as §1, §2
row,"residual binding, % of no competitor [%]",Binder
1,131,B1
2,107,B2
3,124,B3
4,7.1,B4
5,111,B5

# Target: T1, cMetECDHis
# Test: cross-block ELISA; competitor 024
# Protocol: as §1, §2
row,"residual binding, % of no competitor [%]",Binder
1,114,B1
2,99.4,B2
3,113,B3
4,5.4,B4
5,103,B5

# Target: T1, cMetECDHis
# Test: cross-block ELISA; competitor 045
# Protocol: as §1, §2
row,"residual binding, % of no competitor [%]",Binder
1,117,B1
2,95.7,B2
3,114,B3
4,98.1,B4
5,100,B5

# Target: T1, cMetECDHis
# Test: cross-block ELISA; competitor 5D5
# Protocol: as §1, §2
row,"residual binding, % of no competitor [%]",Binder
1,2.9,B1
2,4.2,B2
3,3.1,B3
4,95.5,B4
5,32.4,B5

# Target: T1, cMetECDHis
# Test: cross-block ELISA; competitor 035
# Protocol: as §1, §2
row,"residual binding, % of no competitor [%]",Binder
1,84.9,B1
2,92.4,B2
3,67.5,B3
4,108,B4
5,32.9,B5

# Target: T1, cMetECDHis
# Test: cross-block ELISA; competitor G11-HZ
# Protocol: as §1, §2
row,"residual binding, % of no competitor [%]",Binder
1,76.8,B1
2,85.9,B2
3,54,B3
4,98.2,B4
5,2.7,B5

# Target: T1, cMetECDHis
# Test: cross-block ELISA; competitor 098
# Protocol: as §1, §2
row,"residual binding, % of no competitor [%]",Binder
1,110,B1
2,105,B2
3,111,B3
4,10.4,B4
5,107,B5

# Target: T1, cMetECDHis
# Test: cross-block ELISA; competitor 008
# Protocol: as §1, §2
row,"residual binding, % of no competitor [%]",Binder
1,81.9,B1
2,94.1,B2
3,58.8,B3
4,104,B4
5,5.4,B5

# Target: T1, cMetECDHis
# Test: cross-block ELISA; competitor 006
# Protocol: as §1, §2
row,"residual binding, % of no competitor [%]",Binder
1,18.2,B1
2,60.5,B2
3,14.6,B3
4,101,B4
5,47.3,B5

# Target: T1, cMetECDHis
# Test: cross-block ELISA; competitor 022
# Protocol: as §1, §2
row,"residual binding, % of no competitor [%]",Binder
1,4.9,B1
2,3.8,B2
3,4.6,B3
4,100,B4
5,82.1,B5

# Target: T1, cMetECDHis
# Test: cross-block ELISA; competitor 101
# Protocol: as §1, §2
row,"residual binding, % of no competitor [%]",Binder
1,103,B1
2,104,B2
3,106,B3
4,4.8,B4
5,101,B5

# Target: T1, cMetECDHis
# Test: cross-block ELISA; competitor 068
# Protocol: as §1, §2
row,"residual binding, % of no competitor [%]",Binder
1,129,B1
2,104,B2
3,129,B3
4,12,B4
5,112,B5
